This is an account of results in publication PMC3141240.

The chains are these.
T1: KSHV SOX (alkaline exonuclease) (Kaposi's sarcoma-associated herpesvirus …, UniProt P88925 1-486)
T1 sequence: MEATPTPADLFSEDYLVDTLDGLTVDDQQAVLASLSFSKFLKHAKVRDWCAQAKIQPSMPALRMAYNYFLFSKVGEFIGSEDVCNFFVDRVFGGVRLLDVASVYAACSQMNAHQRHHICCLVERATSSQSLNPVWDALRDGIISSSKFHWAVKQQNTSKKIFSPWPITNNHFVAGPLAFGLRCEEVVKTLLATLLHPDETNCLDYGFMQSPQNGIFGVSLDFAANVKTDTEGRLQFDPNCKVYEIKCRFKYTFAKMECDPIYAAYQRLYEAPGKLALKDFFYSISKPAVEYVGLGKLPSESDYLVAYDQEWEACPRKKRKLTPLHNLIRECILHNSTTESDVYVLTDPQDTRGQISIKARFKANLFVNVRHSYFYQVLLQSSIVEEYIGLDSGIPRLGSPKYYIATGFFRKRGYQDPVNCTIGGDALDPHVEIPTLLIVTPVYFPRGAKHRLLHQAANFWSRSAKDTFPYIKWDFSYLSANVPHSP

B1: dsRNA-5'P (dsRNA)
RNA 1: UGGUUUACAUGUUCCAAUAUU
RNA 2: AAUAUUGGAACAUGUAAACCA
modifications: 5' phosphate on strand 1
B2: dsDNA-5'P (dsDNA)
DNA 1: GGGGATCCTCCCAGTCGACC
DNA 2: GGTCGACTAGGAGGATCCCC
modifications: 5' phosphate on strand 1

The data set deals with T1, KSHV SOX (alkaline exonuclease). Put plainly: fluorescence anisotropy. (In general: Fluorescence polarisation rises when a labelled molecule tumbles more slowly, as on binding a larger partner.)
Regarding B1, the Kd was 95 µM. The result for UGGUUUACAUGUUCCAAUAUU (ssRNA, 5' phosphate) [ssRNA-5'P] reads 87 µM. The result for B2 reads 6 µM.

For orientation: Kd means the concentration at which binding is half-saturated. A low value points to tighter binding.
